Measurements from US20030187247A1.
pIC50: −log10 of the molar value.

Columns and labels:
[1] = biological target: recombinant gp120 of HIV-1 strain IIIB (HIV-1 strain IIIB) (UniProt P04578); test: SPR (BIAcore)
[2] = biological target: HXBc2 gp120 mutant NO V1/V2 (HIV-1 (HXBc2 clone of strain LAI)) (UniProt P04578); test: capture ELISA (D7324)
[3] = biological target: gp120 derived from the HIV-1 strain LAI (Repligen) (HIV-1 strain LAI) (UniProt P03377); test: BIAcore sandwich, Fab 2 on gp120 held by Fab 1; competitor (Fab 1): b13
[4] = biological target: multimeric HXBc2 envelope glycoprotein complex on the transfected COS-1 cell surface (HIV-1 (HXBc2 clone)) (UniProt P04578); test: Fab on transfected COS-1 cells, immunoprecipitation
[5] = biological target: HXBc2 mature gp120 expressed by COS-1 cells (HIV-1 (HXBc2 clone)) (UniProt P04578)
[6] = biological target: gp120 derived from the HIV-1 strain LAI (Repligen) (HIV-1 strain LAI) (UniProt P03377); test: SPR (BIAcore), kon/koff
[7] = biological target: gp120 derived from the HIV-1 strain LAI (Repligen) (HIV-1 strain LAI) (UniProt P03377); test: SPR (BIAcore), gp120 immobilized
[8] = biological target: HXBc2 mature gp120 expressed by COS-1 cells (HIV-1 (HXBc2 clone)) (UniProt P04578); test: Fab on radiolabeled COS-1 cells, lysis, precipitation, gel densitometry
[9] = biological target: gp120 derived from the HIV-1 strain LAI (Repligen) (HIV-1 strain LAI) (UniProt P03377); test: BIAcore sandwich, same Fab injected twice (negative control); competitor: b12
[10] = biological target: gp120 derived from the HIV-1 strain LAI (Repligen) (HIV-1 strain LAI) (UniProt P03377); test: BIAcore sandwich, Fab 2 on gp120 held by Fab 1; competitor (Fab 1): b12
[11] = biological target: recombinant gp120 of HIV-1 strain IIIB (HIV-1 strain IIIB) (UniProt P04578); test: inhibition ELISA, free gp120 titrated against plate-bound gp120
[12] = biological target: gp120 derived from the HIV-1 strain LAI (Repligen) (HIV-1 strain LAI) (UniProt P03377); test: BIAcore sandwich, same Fab injected twice (negative control); competitor: b6
[13] = biological target: gp120 derived from the HIV-1 strain LAI (Repligen) (HIV-1 strain LAI) (UniProt P03377); test: BIAcore sandwich, Fab 2 on gp120 held by Fab 1; competitor (Fab 1): b6

| Substance | Ka [1] | Fab/reference serum binding ratio [2] | response (RU), background subtracted [3] | Fab concentration at saturation [4] | Ka [5] | Ka [6] | koff [7] | kon [7] | excess of gp120 over gp160 immunoreacted [8] | response (RU), background [9] | response (RU), background subtracted [10] | pIC50 [11] | response (RU), background [12] | response (RU), background subtracted [13] |
| --- | --- | --- | --- | --- | --- | --- | --- | --- | --- | --- | --- | --- | --- | --- |
| b12 IgG1 (antibody) | 1.3e+09 M⁻¹ |  |  |  |  |  |  |  |  |  |  |  |  |  |
| Fab b12 |  | 0.23 | 22 RU | 100 µg/mL | 3e+07 M⁻¹ | 1.1e+08 M⁻¹ | 0.00043 s⁻¹ | 45000 M⁻¹ s⁻¹ | > 50% | 17 RU | 0 RU | 9.00 |  |  |
| Fab b6 |  | 1.48 | 21 RU | > 150 µg/mL | < 6e+06 M⁻¹ | 9.7e+07 M⁻¹ | 0.00016 s⁻¹ | 16000 M⁻¹ s⁻¹ |  |  | 17 RU | 9.00 | 38 RU | 0 RU |
